The values that follow come from patent US6602850B1, “Method of treating asthma using soluble IL-9 receptor variants” (Genaera Corporation, priority 1996, dated 2003).

Test [1] has as its system Jak-Stat pathway. In words: Tyrosine phosphorylation of Jak, Stat and Irs family members in TS1 cells expressing human IL-9 receptor variants, after IL-9 stimulation. Format: cell-based. The following applies: TS1 cells expressing the receptor form, starved 6 hours, treated 5 minutes with human or murine IL-9 (100 ng/ml), FIG. 15. The method, then:
(§1) To determine growth response of TS1 cells expressing various forms of human IL-9 receptor, cells were washed with PBS and resuspended in D-MEM, 10% fetal bovine serum. 10^3 cells per well were seeded in triplicate in 96-well microplates and, where appropriate, recombinant human IL-9 or murine IL-9 (R&D Systems, Minneapolis, Minn.) was added at a final concentration of 5 ng/ml. Cell proliferation was evaluated after 7 days using an acid phosphatase assay. Briefly, 50 μl of a buffer containing 0.1 M sodium acetate (pH 5.5), 0.1% Triton X-100 and 10 mM p-nitrophenyl phosphate (Sigma 104 phosphatase substrate) was added per well. The plate was incubated for 1-½ hours at room temperature, the reaction stopped with 10 μl/well of 1N sodium hydroxide and the absorbance was read on a Dynatech Model MR600 at 410 nm. To analyze tyrosine-phosphorylation of proteins of the signal transduction cascade upon cytokine stimulation, TS1 cells expressing various forms of human IL-9 receptor were washed with PBS, resuspended in D-MEM, 0.5% bovine serum albumin, and incubated for 6 hours at 37° C. Successively, 20×10^6 cells were treated for 5 minutes with either human IL-9 or murine IL-9 (100 ng/ml) and immediately washed in cold PBS. Cells were lysed in RIPA buffer as described in Example 11.
Typically, 20-50×10^6cells were lysed in 1 ml of RIPA buffer (PBS containing 1% NP40, 0.5% sodium deoxycholate, 0.1% SDS, 1 mM PMSF, 50 mM sodium fluoride, […] sodium orthovanadate, and 1× “Complete” protease inhibitors mixture, Cat. No. 1697498 Boehringer Mannheim) and incubated for 45 minutes on ice. Lysates were centrifuged for 20 minutes in an Eppendorf microcentrifuge and the supernatant recovered and transferred to a fresh tube. For immunoprecipitations, 1-5 μg of the antibody were added to the lysate and incubated overnight at 4° C. […] Proteins were transferred onto Immobilion-P membrane (Millipore) and detected using a horseradish peroxidase-conjugated secondary antibody followed by a chemiluminescence detection assay (Pierce). […]

In test [2] the test system is TS1 cells. In words: Proliferation of TS1 cells expressing different forms of human IL-9 receptor (acid phosphatase assay). In kind it is cell-based, murine. The following applies: TS1 cells expressing the receptor form, IL-9 5 ng/ml, 7 days, FIG. 16. The method, then:
as §1

The mark [3] stands for this setting: listed as splice variant of the IL-9R.

B1: ΔQ173 variant: splice variant of the IL-9R wherein the glutamine residue at position 173 of the precursor protein has been deleted (SEQ ID NO 3) (protein)
chain: SVTGEGQGPRSRTFTCLTNNILRIDCHWSAPELGQGSSPWLLFTSNQAPGGTHKCILRGSECTVVLPPEAVLVPSDNFTITFHHCMSGREQVSLVDPEYLPRRHVKLDPPSDLQSNISSGHCILTWSISPALEPMTTLLSYELAFKKQEEAWEAQHRDHIVGVTWLILEAFELDPGFIHEARLRVQMATLEDDVVEEERYTGQWSEWSQPVCFQAPQRQGPLIPPWGWPGNTLVAVSIFLLLTGPTYLLFKLSPRVKRIFYQNVPSPAMFFQPLYSVHNGNFQTWMGAHRAGVLLSQDCAGTPQGALEPCVQEATALLTCGPARPWKSVALEEEQEGPGTRLPGNLSSEDVLPAGCTEWRVQTLAYLPQEDWAPTSLTRPAPPDSEGSRSSSSSSSSSNNNNYCALGCYGGWHLSALPGNTQSSGPIPALACGLSCDHQGLETQQGVAWVLAGHCQRPGLHEDLQGMLLPSVLSKARSWTF
As for B1, the “activation (tyrosine phosphorylation) of proteins of the Jak-Stat pathway” value in test [1] is given as “could not activate any proteins in the Jak-Stat pathway”; in test [1] (setting [3]), “not able to transcribe a signal through the Jak-Stat pathway”. The “cellular proliferation upon IL-9 stimulation” value was “could not support cellular proliferation upon IL-9 stimulation” in test [2] and “unable to induce cellular proliferation upon stimulation with IL-9” in test [2] (setting [3]).

B2: IL-9R: wild type human IL-9 receptor, Arg allele at codon 344 with 8 Ser/4 Asn repeats (SEQ ID NO 1) (protein)
chain: SVTGEGQGPRSRTFTCLTNNILRIDCHWSAPELGQGSSPWLLFTSNQAPGGTHKCILRGSECTVVLPPEAVLVPSDNFTITFHHCMSGREQVSLVDPEYLPRRHVKLDPPSDLQSNISSGHCILTWSISPALEPMTTLLSYELAFKKQEEAWEQAQHRDHIVGVTWLILEAFELDPGFIHEARLRVQMATLEDDVVEEERYTGQWSEWSQPVCFQAPQRQGPLIPPWGWPGNTLVAVSIFLLLTGPTYLLFKLSPRVKRIFYQNVPSPAMFFQPLYSVHNGNFQTWMGAHRAGVLLSQDCAGTPQGALEPCVQEATALLTCGPARPWKSVALEEEQEGPGTRLPGNLSSEDVLPAGCTEWRVQTLAYLPQEDWAPTSLTRPAPPDSEGSRSSSSSSSSSNNNNYCALGCYGGWHLSALPGNTQSSGPIPALACGLSCDHQGLETQQGVAWVLAGHCQRPGLHEDLQGMLLPSVLSKARSWTF
With B2, in test [1], the “activation (tyrosine phosphorylation) of proteins of the Jak-Stat pathway” value was “all of the proteins of the pathway including Jak3 and Irs1 were phophoralated”.
